In this series the test system is O=CCCC=O. Put plainly: Alcohol dehydrogenase YqhD, coupled assay, NADPH consumption. In kind it is biochemical, E. coli. To be noted: other: coupled assay, substrate from 0.1-10 mM L-arabonate, 1 mM NADPH, pH 7.5, 10 nM YqhD, 30.0 °C. The protocol:
2-Ketoacid decarboxylase (Kivd) and alcohol dehydrogenase (YqhD): The decarboxylase activity of Kivd was measured by a coupled enzymatic assay with AraC, AraD, and YqhD (Zhang et al., 2011. ChemSusChem 4:1068-1070). Excess AraC, AraD, and YqhD was used and the oxidation of NADPH was monitored at 340 nm. The assay mixture contained 1 mM NADPH, 1 μM AraC, 1 μM AraD, and 100 nM YqhD and 0.1-10 mM L-arabonate in assay buffer (100 mM Tris-HCl buffer, pH 7.5, 5 mM MgSO4, 0.5 mM ThDP) with a total volume of 0.1 ml. The mixture was incubated at 30° C. for one hour and 10 nM Kivd was added. The dehydrogenase activity of YqhD was assayed according to NADPH initial consumption rates in a coupled assay. The assay mixture contained 1 mM NADPH, 100 nM Kivd, 1 μM AraC, 1 μM AraD, and 0.1-10 mM L-arabonate in 100 μl of 100 mM Tris-HCl buffer (pH 7.5) with 5 mM MgSO4. The mixture was first incubated at 30° C. for one hour. Afterwards, 10 nM YqhD was added and the NADPH consumption rate was monitored.

As to “E. coli alcohol dehydrogenase YqhD (Escherichia coli K-12)”, the Michaelis constant (Km) – broadly, the concentration of substrate that gives half-maximal velocity – was determined as 1900 µM and the kcat (as a rule, the maximal rate divided by the concentration of active sites) came to 45.0 s⁻¹.

The values are drawn from patent publication US20170137855A1, “RECOMBINANT CELLS AND METHODS FOR NONPHOSPHORYLATIVE METABOLISM” (REGENTS OF THE UNIVERSITY OF MINNESOTA, priority 2015, published 2017).
